# Experimental data reported in publication PMC10786891, “Massively parallel profiling of RNA-targeting CRISPR-Cas13d”.
# T1: EsCas13d, nuclease-dead (Eubacterium siraeum, UniProt B0MS50, R295A;H300A;R849A;H854A)
# T1 sequence: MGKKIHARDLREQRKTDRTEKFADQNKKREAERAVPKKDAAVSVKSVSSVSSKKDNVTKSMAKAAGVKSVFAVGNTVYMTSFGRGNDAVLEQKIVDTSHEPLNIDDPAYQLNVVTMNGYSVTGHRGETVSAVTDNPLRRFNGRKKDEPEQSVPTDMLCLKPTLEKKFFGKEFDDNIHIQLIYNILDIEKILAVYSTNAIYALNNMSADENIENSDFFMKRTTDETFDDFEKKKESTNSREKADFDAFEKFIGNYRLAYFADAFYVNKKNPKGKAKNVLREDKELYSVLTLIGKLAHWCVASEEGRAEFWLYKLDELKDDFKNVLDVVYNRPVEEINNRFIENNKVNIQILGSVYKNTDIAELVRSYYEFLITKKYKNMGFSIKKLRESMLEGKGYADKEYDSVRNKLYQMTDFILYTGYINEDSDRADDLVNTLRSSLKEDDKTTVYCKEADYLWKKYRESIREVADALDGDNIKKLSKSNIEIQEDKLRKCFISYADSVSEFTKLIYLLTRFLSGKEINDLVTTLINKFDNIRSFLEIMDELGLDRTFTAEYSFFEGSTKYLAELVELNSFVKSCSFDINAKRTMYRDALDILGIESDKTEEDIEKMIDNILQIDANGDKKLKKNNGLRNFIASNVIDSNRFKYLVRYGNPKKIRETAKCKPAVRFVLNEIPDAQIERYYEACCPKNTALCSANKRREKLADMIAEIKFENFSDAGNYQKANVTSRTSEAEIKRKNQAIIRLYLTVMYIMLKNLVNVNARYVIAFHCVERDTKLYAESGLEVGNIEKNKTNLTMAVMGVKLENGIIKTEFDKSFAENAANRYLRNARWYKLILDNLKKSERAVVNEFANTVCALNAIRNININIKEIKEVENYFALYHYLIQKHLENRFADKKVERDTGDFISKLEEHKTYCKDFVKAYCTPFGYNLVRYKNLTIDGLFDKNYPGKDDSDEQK
# Biological target: T1, EsCas13d, nuclease-dead
# Assay: crRNA (strand 1, pre-loaded); Mg2+; 40 mM Tris-HCl pH 7.5, 150 mM NaCl, 6 mM MgCl2, 1 mM DTT, 0.1% Tween-20, 0.2 mg/ml BSA; 25 C; 10 min per concentration, then washed
# Details: tags: His6-TwinStrep-SUMO cleaved; N-terminal SNAP kept (SNAP-Surface 488); label: 3' end held by stalled T7 RNA polymerase
row,Binder,Kd [nM]
1,"target 1 insC 3' of 8,insA 3' of 6 (mixed) RNA 1: CACCCGUGCAAAAAUGCAGGGGUCUAAAACUGAGCGGAUAACCUCUCUAUGG RNA 2: GGGAAUGGAUCCACAUCUACGAAUUCGUACCAUAGAGAGGUUAUCCCAGCUCACCGAGAUCGGAAGAGCACACGU",17.7 ± 0.9
2,"target 1 insC 3' of 15,insG 3' of 9 (mixed) RNA 1: CACCCGUGCAAAAAUGCAGGGGUCUAAAACUGAGCGGAUAACCUCUCUAUGG RNA 2: GGGAAUGGAUCCACAUCUACGAAUUCGUACCAUAGAGCAGGUUAGUCCGCUCACCGAGAUCGGAAGAGCACACGU",20.8 ± 1
3,"target 1 C7G,A9U (mixed) RNA 1: CACCCGUGCAAAAAUGCAGGGGUCUAAAACUGAGCGGAUAACCUCUCUAUGG RNA 2: GGGAAUGGAUCCACAUCUACGAAUUCGUACCAUAGAGAGGUUUUGCGCUCACCGAGAUCGGAAGAGCACACGU",7.61 ± 0.27
4,"target 1 C7G,G15A (mixed) RNA 1: CACCCGUGCAAAAAUGCAGGGGUCUAAAACUGAGCGGAUAACCUCUCUAUGG RNA 2: GGGAAUGGAUCCACAUCUACGAAUUCGUACCAUAGAAAGGUUAUGCGCUCACCGAGAUCGGAAGAGCACACGU",22.5 ± 1.6
5,"target 1 C7U,G12C (mixed) RNA 1: CACCCGUGCAAAAAUGCAGGGGUCUAAAACUGAGCGGAUAACCUCUCUAUGG RNA 2: GGGAAUGGAUCCACAUCUACGAAUUCGUACCAUAGAGAGCUUAUUCGCUCACCGAGAUCGGAAGAGCACACGU",9.7 ± 0.7
6,"target 1 insG 3' of 22,insC 3' of 18 (mixed) RNA 1: CACCCGUGCAAAAAUGCAGGGGUCUAAAACUGAGCGGAUAACCUCUCUAUGG RNA 2: GGGAAUGGAUCCACAUCUACGAAUUCGUACGCAUACGAGAGGUUAUCCGCUCACCGAGAUCGGAAGAGCACACGU",73 ± 23
7,"target 1 insA 3' of 17,insU 3' of 4 (mixed) RNA 1: CACCCGUGCAAAAAUGCAGGGGUCUAAAACUGAGCGGAUAACCUCUCUAUGG RNA 2: GGGAAUGGAUCCACAUCUACGAAUUCGUACCAUAGAAGAGGUUAUCCGCUUCACCGAGAUCGGAAGAGCACACGU",44 ± 5
8,"target 1 C6G,G12C (mixed) RNA 1: CACCCGUGCAAAAAUGCAGGGGUCUAAAACUGAGCGGAUAACCUCUCUAUGG RNA 2: GGGAAUGGAUCCACAUCUACGAAUUCGUACCAUAGAGAGCUUAUCGGCUCACCGAGAUCGGAAGAGCACACGU",15.1 ± 0.7
9,"target 1 C6A,G12A (mixed) RNA 1: CACCCGUGCAAAAAUGCAGGGGUCUAAAACUGAGCGGAUAACCUCUCUAUGG RNA 2: GGGAAUGGAUCCACAUCUACGAAUUCGUACCAUAGAGAGAUUAUCAGCUCACCGAGAUCGGAAGAGCACACGU",7.07 ± 0.35
10,"target 1 insA 3' of 21,insA 3' of 3 (mixed) RNA 1: CACCCGUGCAAAAAUGCAGGGGUCUAAAACUGAGCGGAUAACCUCUCUAUGG RNA 2: GGGAAUGGAUCCACAUCUACGAAUUCGUACCAAUAGAGAGGUUAUCCGCUACACCGAGAUCGGAAGAGCACACGU",12.2 ± 0.6
11,"target 1 insC 3' of 14,insU 3' of 4 (mixed) RNA 1: CACCCGUGCAAAAAUGCAGGGGUCUAAAACUGAGCGGAUAACCUCUCUAUGG RNA 2: GGGAAUGGAUCCACAUCUACGAAUUCGUACCAUAGAGACGGUUAUCCGCUUCACCGAGAUCGGAAGAGCACACGU",43 ± 4
12,"target 1 U3G,C21A (mixed) RNA 1: CACCCGUGCAAAAAUGCAGGGGUCUAAAACUGAGCGGAUAACCUCUCUAUGG RNA 2: GGGAAUGGAUCCACAUCUACGAAUUCGUACAAUAGAGAGGUUAUCCGCGCACCGAGAUCGGAAGAGCACACGU",41 ± 14
13,target 1 complement block 6-10 (mixed) RNA 1: CACCCGUGCAAAAAUGCAGGGGUCUAAAACUGAGCGGAUAACCUCUCUAUGG RNA 2: GGGAAUGGAUCCACAUCUACGAAUUCGUACCAUAGAGAGGUAUAGGGCUCACCGAGAUCGGAAGAGCACACGU,10.1 ± 0.6
14,"target 1 C6G,A16G (mixed) RNA 1: CACCCGUGCAAAAAUGCAGGGGUCUAAAACUGAGCGGAUAACCUCUCUAUGG RNA 2: GGGAAUGGAUCCACAUCUACGAAUUCGUACCAUAGGGAGGUUAUCGGCUCACCGAGAUCGGAAGAGCACACGU",31.8 ± 1.6
15,"target 1 insG 3' of 6,insA 3' of 6 (mixed) RNA 1: CACCCGUGCAAAAAUGCAGGGGUCUAAAACUGAGCGGAUAACCUCUCUAUGG RNA 2: GGGAAUGGAUCCACAUCUACGAAUUCGUACCAUAGAGAGGUUAUCCGAGCUCACCGAGAUCGGAAGAGCACACGU",10.6 ± 1.1
16,"target 1 U10G,G12A (mixed) RNA 1: CACCCGUGCAAAAAUGCAGGGGUCUAAAACUGAGCGGAUAACCUCUCUAUGG RNA 2: GGGAAUGGAUCCACAUCUACGAAUUCGUACCAUAGAGAGAUGAUCCGCUCACCGAGAUCGGAAGAGCACACGU",32.9 ± 2.7
17,target 1 insU 3' of 21 (mixed) RNA 1: CACCCGUGCAAAAAUGCAGGGGUCUAAAACUGAGCGGAUAACCUCUCUAUGG RNA 2: GGGAAUGGAUCCACAUCUACGAAUUCGUACCUAUAGAGAGGUUAUCCGCUCACCGAGAUCGGAAGAGCACACGU,24 ± 1.6
18,"target 1 insA 3' of 15,insC 3' of 1 (mixed) RNA 1: CACCCGUGCAAAAAUGCAGGGGUCUAAAACUGAGCGGAUAACCUCUCUAUGG RNA 2: GGGAAUGGAUCCACAUCUACGAAUUCGUACCAUAGAGAAGGUUAUCCGCUCACCCGAGAUCGGAAGAGCACACGU",7.1 ± 0.8
19,"target 1 insA 3' of 15,insG 3' of 1 (mixed) RNA 1: CACCCGUGCAAAAAUGCAGGGGUCUAAAACUGAGCGGAUAACCUCUCUAUGG RNA 2: GGGAAUGGAUCCACAUCUACGAAUUCGUACCAUAGAGAAGGUUAUCCGCUCAGCCGAGAUCGGAAGAGCACACGU",5.96 ± 0.32
20,"target 1 insC 3' of 13,insG 3' of 10 (mixed) RNA 1: CACCCGUGCAAAAAUGCAGGGGUCUAAAACUGAGCGGAUAACCUCUCUAUGG RNA 2: GGGAAUGGAUCCACAUCUACGAAUUCGUACCAUAGAGAGCGUUGAUCCGCUCACCGAGAUCGGAAGAGCACACGU",15.8 ± 1.7
21,"target 1 insU 3' of 15,insC 3' of 13 (mixed) RNA 1: CACCCGUGCAAAAAUGCAGGGGUCUAAAACUGAGCGGAUAACCUCUCUAUGG RNA 2: GGGAAUGGAUCCACAUCUACGAAUUCGUACCAUAGAGUAGCGUUAUCCGCUCACCGAGAUCGGAAGAGCACACGU",19.3 ± 2.7
22,"target 1 insA 3' of 15,insA 3' of 2 (mixed) RNA 1: CACCCGUGCAAAAAUGCAGGGGUCUAAAACUGAGCGGAUAACCUCUCUAUGG RNA 2: GGGAAUGGAUCCACAUCUACGAAUUCGUACCAUAGAGAAGGUUAUCCGCUCAACCGAGAUCGGAAGAGCACACGU",6.4 ± 0.4
23,"target 1 del7,del9 (mixed) RNA 1: CACCCGUGCAAAAAUGCAGGGGUCUAAAACUGAGCGGAUAACCUCUCUAUGG RNA 2: GGGAAUGGAUCCACAUCUACGAAUUCGUACCAUAGAGAGGUUUCGCUCACCGAGAUCGGAAGAGCACACGU",12.3 ± 0.9
24,"target 1 insA 3' of 4,insU 3' of 1 (mixed) RNA 1: CACCCGUGCAAAAAUGCAGGGGUCUAAAACUGAGCGGAUAACCUCUCUAUGG RNA 2: GGGAAUGGAUCCACAUCUACGAAUUCGUACCAUAGAGAGGUUAUCCGCAUCAUCCGAGAUCGGAAGAGCACACGU",7 ± 0.6
